This is an account of results in publication PMC9376891 (Nature Communications, 2022).

For orientation: Kd means a measure of binding affinity in units of concentration. Read a low Kd as a tighter complex. Broadly, the stoichiometry N is the number of molecules, sites or subunits per partner or assembly.

The chains are these.
B1: Rae1(31-368)-Nup98(157-213) heterodimer (complex)
chain 1: DIEVTSSPDDSIGCLSFSPPTLPGNFLIAGSWANDVRCWEVQDSGQTIPKAQQMHTGPVLDVCWSDDGSKVFTASCDKTAKMWDLSSNQAIQIAQHDAPVKTIHWIKAPNYSCVMTGSWDKTLKFWDTRSSNPMMVLQLPERCYCADVIYPMAVVATAERGLIVYQLENQPSEFRRIESPLKHQHRCVAIFKDKQNKPTGFALGSIEGRVAIHYINPPNPAKDNFTFKCHRSNGTNTSAPQDIYAVNGIAFHPVHGTLATVGSDGRFSFWDKDARTKLKTSEQLDQPISACCFNHNGNIFAYASSYDWSKGHEFYNPQKKNYIFLRNAAEELKPRNKK
chain 2: not shown
notes: also called Rae1-Nup98; Rae1-Nup98 complex

What all share (experiment): ITC
Details in all cases: both partners purified

In test [1] the target is T1, Rae1(31-368)-Nup98(157-213) heterodimer (human, UniProt P78406 31-368; P52948 157-213).
T1 construct: also called Rae1-Nup98; Rae1-Nup98 complex
T1 sequence (P52948 157-213, chain 2 of 2, one chain of several): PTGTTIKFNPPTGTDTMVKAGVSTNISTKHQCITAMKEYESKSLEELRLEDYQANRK

In test [2] the target is B1. This is another data set of the same source.
Target sequence in this assay (P52948 157-213, chain 2 of 2, one chain of several): as above
In test [3] the target is B1. This is another data set of the same source.
Target sequence in this assay (P52948 157-213, chain 2 of 2, one chain of several): as above
The target in test [4] is T2, MHV68-ORF10-CTT (murine gammaherpesvirus 68).
T2 construct: source: synthetic peptide
T2 sequence (P52948 157-213): as the sequence (P52948 157-213, chain 2 of 2, one chain of several) above

In test [1], YSQLDEEQPMEID (source: synthetic peptide) [SARS-CoV-2 ORF6 C3 peptide] displayed a dissociation constant Kd of 240 nM.

On to DEMDTHDPNQLRY [VSV-M-NTE], for which, in test [2], the Ka turned out to be 8550 M⁻¹ and the “stoichiometry N” value was 0.304.

For the molecule YSQLDEEQPMEID (source: synthetic peptide) [SARS-CoV-2 ORF6 C3], in test [3], the Ka worked out at 4.12e+06 M⁻¹ and the “stoichiometry N” value was determined as 0.9.

On to YSELDDEEPMELDYP [SARS-CoV ORF6 C3], for which, in test [2], the Ka stood at 2.69e+06 M⁻¹ and the “stoichiometry N” value turned out to be 0.63.

In test [1], YSELDDEEPMELDYP [SARS-CoV ORF6 C3 peptide] returned a Kd of 370 nM.

As for DEEQPMEID (source: synthetic peptide) [SARS-CoV-2 ORF6 C4], in test [3], the Ka came to 2.25e+06 M⁻¹, binding was put at a Kd of 440 nM and the “stoichiometry N” value stood at 0.82.

In test [1], RAITDGGESPMEWQTL [MHV-68 ORF10 CTT peptide] showed a Kd of 5710 nM.

Turning to YSELDDEEPMELD [SARS-CoV ORF6 C3 -YP], binding in test [1] was put at a Kd of 110 nM.

Take B1: in test [4], the Ka was determined as 175000 M⁻¹.

Take YSQLDEEQPM (source: synthetic peptide) [SARS-CoV-2- ORF6-EID]: in test [2], the Ka is 11400 M⁻¹ and the “stoichiometry N” value is 1.01.

As for YSQLDEEQPM (source: synthetic peptide) [SARS-CoV-2 ORF6 C3 lacking the last three residues 59-EID-61 but retaining M58], the equilibrium dissociation constant (Kd) in test [1] turned out to be 87700 nM.

As for ENKYSQLDEEQPMEID (source: synthetic peptide) [SARS-CoV-2 ORF6 C2], in test [3], the Ka was determined as 3.58e+06 M⁻¹, the equilibrium dissociation constant (Kd) came to 270 nM and the “stoichiometry N” value was found to be 1.17.

As for SLTENKYSQLDEEQPMEID (source: synthetic peptide) [SARS-CoV-2 ORF6 C1], in test [3], the Ka was found to be 2.62e+06 M⁻¹, the Kd was determined as 380 nM and the “stoichiometry N” value was found to be 1.06.

On to YSELDDEEPMELD [SARS-CoV ORF6-YP], for which, in test [2], the Ka was determined as 8.89e+06 M⁻¹ and the “stoichiometry N” value was 0.62.
